In publication PMC4891106:

Biological target: Cbl (UniProt P22681)
Experiment: anti-CD93 co-IP, anti-Cbl blot
Details: reference: wild type CD93 (res85); sites Y628,Y644

## CD93 (from UniProt Q9NPY3) Y628F/Y644F (res85Y1Y2)
  binding against the reference: lost
